From patent publication US20220324962A1

B1: anti-MIS antibody B10 (antibody, V domains shown)
VH: EVQLVESGGSLVKPGGSLRLSCAASGFTFSNYNMNWVRQAPGKGLEWISDINGSSRSIYYADFVKGRFTISRDNATNSLYLQMNSLRAEDTAVYYCVRSSYYGGGMDVWGRGTLVTVSS
VL: QSVLTQPASVSGSPGQSITISCAGTSSDVGGYNYVSWYQQHPGKAPKLMIYYDSYRPSGVSNRFSGSKSGNTASLTISGLQAEDEADYYCSSYTDYSTRVFGGGTKLAVLG

Key:
[1] = molecular target: full-length human MISRII (human) (UniProt Q16671); assay: cell-based or functional assay
[2] = molecular target: active recombinant MIS (LRMIS) (human) (UniProt P03971); assay: cell-based or functional assay
UniProt P03971, sequence (P03971 26-560): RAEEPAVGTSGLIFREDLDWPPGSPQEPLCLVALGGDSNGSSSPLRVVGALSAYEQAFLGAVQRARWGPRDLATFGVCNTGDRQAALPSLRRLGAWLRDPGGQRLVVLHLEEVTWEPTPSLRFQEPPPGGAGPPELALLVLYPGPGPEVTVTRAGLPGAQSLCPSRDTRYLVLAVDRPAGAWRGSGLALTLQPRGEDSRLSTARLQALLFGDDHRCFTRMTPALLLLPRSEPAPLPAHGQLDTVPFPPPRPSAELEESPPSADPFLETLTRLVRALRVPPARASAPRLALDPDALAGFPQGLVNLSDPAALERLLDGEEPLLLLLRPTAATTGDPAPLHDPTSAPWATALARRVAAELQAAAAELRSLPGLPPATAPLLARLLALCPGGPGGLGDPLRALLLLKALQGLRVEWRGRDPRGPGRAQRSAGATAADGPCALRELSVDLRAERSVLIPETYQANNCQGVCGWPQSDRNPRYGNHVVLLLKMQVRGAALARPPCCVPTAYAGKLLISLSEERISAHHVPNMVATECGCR

[3] = molecular target: active recombinant MIS (LRMIS) (human) (UniProt P03971); assay: sandwich ELISA: recombinant AMH (25 nM) captured on coated polyclonal anti-AMH, B10 titrated 666-0 nM, detected with anti-mouse Fc HRP

UniProt Q16671, sequence (Q16671 18-573): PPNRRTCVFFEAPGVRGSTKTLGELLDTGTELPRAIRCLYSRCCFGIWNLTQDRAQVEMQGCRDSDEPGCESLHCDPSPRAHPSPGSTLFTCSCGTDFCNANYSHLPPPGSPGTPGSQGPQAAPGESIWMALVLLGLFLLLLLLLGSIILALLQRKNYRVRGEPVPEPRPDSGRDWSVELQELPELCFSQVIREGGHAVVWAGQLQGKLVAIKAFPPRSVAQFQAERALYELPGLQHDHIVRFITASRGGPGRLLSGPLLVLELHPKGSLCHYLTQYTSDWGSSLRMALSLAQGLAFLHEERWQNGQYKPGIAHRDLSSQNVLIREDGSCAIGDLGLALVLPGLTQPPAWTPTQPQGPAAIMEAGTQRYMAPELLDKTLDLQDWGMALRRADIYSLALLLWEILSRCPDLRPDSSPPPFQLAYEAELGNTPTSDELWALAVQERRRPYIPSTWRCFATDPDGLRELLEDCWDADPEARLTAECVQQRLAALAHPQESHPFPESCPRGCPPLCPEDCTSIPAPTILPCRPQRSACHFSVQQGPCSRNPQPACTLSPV

| Molecule | Apoptosis, evaluated by measuring caspase-3/7 activity (COV434-MISRII cells) [1] | Apoptosis, evaluated by measuring caspase-3/7 activity (SKOV3-MISRII cells) [1] | decrease in Caspase-3/7 activity induced by 25 nM MIS (fold change relative to untreated cells) [2] | EC50 [3] |
| --- | --- | --- | --- | --- |
| active recombinant MIS (LRMIS) (from UniProt P03971 26-560) (ligand) | 12.5 nM | 6.3 nM | – | – |
| B1 | – | – | 40% | 0.0504 µM |
